Reference: article PMC4357533 (Journal of molecular biology, 2015)
Residue numbers refer to the chain shown, from its start. In names and notes the source's numbering stands.

B1: Sis1 single alteration variant K199N (natural protein, S. cerevisiae, UniProt P25294 1-352, looked up)
chain: MVKETKLYDLLGVSPSANEQELKKGYRKAALKYHPDKPTGDTEKFKEISEAFEILNDPQKREIYDQYGLEAARSGGPSFGPGGPGGAGGAGGFPGGAGGFSGGHAFSNEDAFNIFSQFFGGSSPFGGADDSGFSFSSYPSGGGAGMGGMPGGMGGMHGGMGGMPGGFRSASSSPTYPEEETVQVNLPVSLEDLFVGKKNSFKIGRKGPHGASEKTQIDIQLKPGWKAGTKITYKNQGDYNPQTGRRKTLQFVIQEKSHPNFKRDGDDLIYTLPLSFKESLLGFSKTIQTIDGRTLPLSRVQPVQPSQTSTYPGQGMPTPKNPSQRGNLIVKYKVDYPISLNDAQKRAIDENF
B2: Sis1 single alteration variant K202N (natural protein, S. cerevisiae, UniProt P25294 1-352, looked up)
chain: B1 chain with N199K, K202N
B3: Sis1 single alteration variant K214N (natural protein, S. cerevisiae, UniProt P25294 1-352, looked up)
chain: B1 chain with N199K, K214N

Target: Ssa1 Hsp70 (S. cerevisiae, UniProt P10591 1-642)
Assay: ELISA

Ssa1 Hsp70, sequence (P10591 whole entry): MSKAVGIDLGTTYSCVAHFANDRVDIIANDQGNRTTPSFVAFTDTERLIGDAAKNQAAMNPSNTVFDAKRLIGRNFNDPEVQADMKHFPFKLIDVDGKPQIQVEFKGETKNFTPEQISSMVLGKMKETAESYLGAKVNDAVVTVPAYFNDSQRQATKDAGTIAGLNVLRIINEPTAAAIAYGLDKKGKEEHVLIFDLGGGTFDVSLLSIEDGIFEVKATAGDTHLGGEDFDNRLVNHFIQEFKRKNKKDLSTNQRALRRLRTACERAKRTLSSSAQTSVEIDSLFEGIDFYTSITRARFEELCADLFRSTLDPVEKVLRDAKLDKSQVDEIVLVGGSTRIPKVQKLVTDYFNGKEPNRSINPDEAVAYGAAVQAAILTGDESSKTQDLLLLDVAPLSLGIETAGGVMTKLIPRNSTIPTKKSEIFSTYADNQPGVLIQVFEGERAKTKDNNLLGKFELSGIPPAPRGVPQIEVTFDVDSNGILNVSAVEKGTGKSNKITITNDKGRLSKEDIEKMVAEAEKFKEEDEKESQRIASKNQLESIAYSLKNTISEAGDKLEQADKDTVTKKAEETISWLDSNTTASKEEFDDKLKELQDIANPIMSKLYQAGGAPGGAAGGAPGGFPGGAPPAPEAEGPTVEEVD

| Binder | binding result |
| --- | --- |
| B1 | binds |
| B2 | binds |
| B3 | binds |
